Assay [1] deals with T1, PHD_(Pygo1)–HD1_(BCL9) complex (6×His-tagged, PHD linked to HD1) (human, UniProt Q9Y3Y4 340-400; O00512 177-205).
T1 chain: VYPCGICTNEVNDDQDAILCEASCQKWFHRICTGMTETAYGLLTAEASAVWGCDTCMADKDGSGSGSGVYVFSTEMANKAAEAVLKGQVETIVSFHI
As to the kind of experiment: ITC. On the technique in general: ITC needs no label: the signal is the heat of the interaction.

Assay [2] concerns the target T2, PHD_(Pygo2)–HD1_(BCL9) complex (human, UniProt Q9BRQ0 327-387; O00512 177-205).
T2 chain: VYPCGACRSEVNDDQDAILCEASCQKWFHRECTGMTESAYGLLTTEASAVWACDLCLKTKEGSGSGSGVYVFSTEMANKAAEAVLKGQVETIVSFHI
As to the kind of experiment: ITC.

Where no end group is shown, it is not given here. Me2 = dimethyl

In general, Kd refers to the concentration at which binding is half-saturated. Lower therefore signals higher affinity. ARTK(Me2)QTARKSTGGKA [15-mer H3K4me2 histone tail peptide (histone H3 tail dimethylated at lysine 4)]: the results for the Kd in assay [1] and in assay [2] were 3.32 µM and 2.02 µM, respectively.

For the origin of these results see article PMC2927781 (2010).
